Measured values reported in US20210292393A1 (published 2021).

B1: antibody 370 (antibody, V domains shown)
VH: QVQLVESGGGVVPPGRSLSLPCAASGFTFSAYAMHWLRQAPGKGLEWVAVISYDGTVKYVADSVRGRFTISRDNSNNTLYLQMTSLRSDDTAVYYCARDLGALAAAPTVYFVHWGQGTLVTVSS
VL: SYVLTQPPSVSVAPGKTATITCAGEDIGRKSVHWYQQKPGQAPVLVIFYYSDRPSGIPDRFSGSVSGNTATLTIGRVEAGDEADYFCQVWDRTTNHVIFGGGTKVTVL
B2: antibody 368 (antibody, V domains shown)
V domain 1: QITLKESGPTLVKPTETLTLTCAFSGFSLTKTGEAAGWIRQAPGRALEWVTVIFWDDDKRYSPSLQNRLTVTKDTSKNVVVLTMTNVDPVDTATYFCWAMGGPGKEFFGQGTRVAVSS
V domain 2: QSVLTQPPSVSGAPGQRVTVSCTGTSSSIGPYSDVHWYQHIPGKAPRLLIFGTSNRPSGVPARFSGSKSGSSASLVIAGLQAEDEADYYCQSYDSSLGEIYVFGTGTTVTVL
B3: antibody 291 (antibody, V domains shown)
VH: QVQLVESGGGVVQPGRSLRLSCAASGFTFSSYAMHWVRQAPGKGLEWVAVISYDGSNKYYADSVKGRFTISRDNSKNTLYLQMNSLRAEDTAVYYCARASGGSYFGGMDVWGQGTTVTVSS
VL: QSALTQPASVSGSPGQSITISCTGTSSDVGGYNYVSWYQQHPGKAPKLMIYEVSNRPSGVSNRFSGSKSGNTASLTISGLQAEDEADYYCSSYTSSSTLYVFGTGTKVTVL
B4: antibody 258 (antibody, V domains shown)
VH: QVQLQESGPGLVKPSETLSLTCTVSGGSISSYYWSWIRQPAGKGLEWIGRIYTSGSTNYNPSLKSRVTMSVDTSKNQFSLKLSSVTAADTAVYYCAAGYGSIDYWGQGTLVTVSS
VL: not shown
B5: antibody 492 (antibody, V domains shown)
VH: QVQLVESGGGVVQPGRSLRLSCAASGFTFSSYGMHWVRQAPGKGLEWVAVISYDGSNKYYADSVKGRFTISRDNSKNTLYLQMNSLRAEDTAVYYCAKDGILWWWWGYFDYWGQGTLVTVSS
VL: QSVLTQPPSVSGAPGQRVTISCTGSSSNIGAGFDVHWYQQLPGTAPKLLIYGNSNRPSGVPDRFSGSKSGTSASLAITGLQAEDEADYYCQSYDSSLSVVFGGGTKLTVL
B6: antibody 475 (antibody, V domains shown)
VH: QVQLVESGGGVVQPGRSLRLSCAASGFTFSSYAMHWVRQAPGKGLEWVTFISHEGSNKYYADSVKGRFTISRDNSKNTLYLQMNSLRAEDTAVYYCARTFEYSSSSATGDFDYWGQGTLVTVSS
VL: QSVLTQPPSVSGAPGQRVTISCTGSSSNIGAGYDVHWYQQLPGTAPKLLIYGNSNRPSGVPDRFSGSKSGTSASLAITGLQAEDEADYYCQSYDSSLSGVVFGGGTKLTVL
B7: antibody 509 (antibody, V domains shown)
VH: QVQLVESGGGVVQPGRSLRLSCAASGFNLSSYAMHWVRQASGKGLEWVSLISYDGSIKYYTDSVKGRFTVSGDNSKNTLFLQMNSLRADDSALYYCVRGGVSGPNSFDLWGQGTTVTVSS
VL: DVVMTQSPLSLPVTLGQPASISCRSSQSLVYSDGNTYVNWFQQRPGQSPRRLIYKVSIRASGVPDRFSGSGSGTDFALKISRVEAEDVGVYYCMQGTHWPVTFGQGTKVEIK
B8: antibody 480 (antibody, V domains shown)
VH: QVQLVESGGGVVQPGRSLRLSCAASGFTFSSYAMHWVRQAPGKGLEWVAVISYDGNNKYYADSVKGRFTISRDNSKNTLYLQMNSLRAEDTAVYYCVRTNSGSYYAAFDYWGQGTLVTVSS
VL: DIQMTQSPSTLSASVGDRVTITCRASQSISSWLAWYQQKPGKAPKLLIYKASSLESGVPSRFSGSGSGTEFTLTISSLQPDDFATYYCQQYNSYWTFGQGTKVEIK
B9: antibody 510 (antibody, V domains shown)
VH: QVQLQESGPGLVKPSQTLSLTCTVSGGSISSGSYYWSWIRQPAGKGLEWIGRIYTSGSTNYNPSLKSRVTISVDTSKNQFSLKLSSVTAADTAVYYCAREGQWLYRFDYWGQGTLVTVSS
VL: QSALTQPASVSGSPGQSITISCTGTSSDVGNYDLVSWYQQHPGKAPKLVIYGVTKRPSGVSNRFSGSKSGNTASLTISGLQAEDEADYYCCSYATGDTSVFGTGTKVTVL
B10: antibody 477 (antibody, V domains shown)
VH: QVQLVESGGGVVQPGRSLRLSCAASGITFSSYAMHWVRQAPGKGLEWVAVISYDGSDKYHADSVKGRFAISRDNSKNTLYLQMNSLRAEDTAVYYCAKDKGIAVAGTGWIRPDPEYYFDYWGQGTLVTVSS
VL: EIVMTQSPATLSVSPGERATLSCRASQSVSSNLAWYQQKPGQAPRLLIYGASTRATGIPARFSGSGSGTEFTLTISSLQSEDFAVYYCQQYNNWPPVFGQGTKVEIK
B11: antibody 496 (antibody, V domains shown)
VH: QVQLVQSGAEVKKPGASVKVSCKASGYTFTDYYIHWVRQAPGQGLEWMGWINPNSGGTNYAQKFQGRLTMTRDTSISTAYMELSRLRSDDTAVYYCARVYSMFREFIINPYYYYYGLDVWGQGTTVTVSS
VL: QSALTQPASVSGSPRQSITISCTGTSSDVGSYNLVSWYQQHPGKAPKLMIYEGSKRPSGVSNRFSGSKSGNTASLAISGLQAEDEANYYCCSYAGSSTLVFGGGTKLTVL
B12: antibody 476 (antibody, V domains shown)
VH: QVQLVQSGSELKKPGASVKVSCKASGYTFTSYAMNWVRQAPGQGLEWMGWINTNTGNPTYAQGFTGRFVFSLDTSVSTAYLQISSLKAEDTGVYYCARDHELPNSSSWFGHFEYWGQGTLVTVSS
VL: SYELTQPPSVSVSPGQTARITCSGDALPKQYAYWYQQKAGQAPVLVIYKDSERRSGIPERFSGSSSGTTVTLTISGVQAEDEADYYCQSADSSGTSVVFGGGTKLTVL
B13: antibody 497 (antibody, V domains shown)
VH: QVQLQESGPGLVKPSQTLSLTCTVSGGSINSFGYYWSWIRQHPGKGLEWIGYIYYSGSTDYNPSLNSRVTISLDTSKNQFLLKLTSVTAADTAVYYCAKLTDYYDSSGYSFDYWGQGTLVTVSS
VL: DIQMTQSPSSVSASVGDRVTITCRASQDISRWLAWYQQKPGKAPKLLIYAASSLQSGVPSRFSGRGSGTELTLTISSLQPEDFATYFCQQAYSFPFTFGGGTKVEIK
B14: antibody 504 (antibody, V domains shown)
VH: QVQLVESGGGVVQPGRSLRLSCAASGFTFSSYGMHWVRQAPGKGLEWVAVISYDGSNKYYADSVKGRFTISRDNSKNTLYLQMNSLRAEDTAVYYCAKGGGGGYCSGGSCYSHYFDYWGQGTLVTVSS
VL: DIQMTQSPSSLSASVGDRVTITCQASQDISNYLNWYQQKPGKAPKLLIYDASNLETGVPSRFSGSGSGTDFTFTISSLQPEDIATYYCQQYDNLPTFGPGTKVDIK
B15: antibody 474 (antibody, V domains shown)
VH: EVQLVESGGGLVQPGGSLRLSCAASGFTFSSYWMHWVRQAPGKGLVWVSRINSDGSSTSYADSVKGRFTISRDNAKNTLYRQMNSLRAEDTAVYYCALGPLDIVGSYYYYGMDVWGQGTTVTVSS
VL: NFMLTQPHSVSESPGKTVTISCTGSSGSIASNYVQWYQQRPGSAPTTVIYEDNQRPSGVPDRFSGSIDSSSNSASLTISGLKTEDEADYYCQSYDSSNQDVVFGGGTKLTVL

These binders were tested against SARS-CoV-2 full length spike protein, V367F mutant, expressed on CHO cells (SARS-CoV-2, UniProt P0DTC2 14-1273).
In the case of B1, the “median fluorescence fold over isotype control” value (“median fluorescence fold” below) is reported as 35.3 fold over isotype.
For B2, the “median fluorescence fold” value was 31.6 fold over isotype.

What follows are binders tested against SARS-CoV-2 full length spike protein, D614G mutant (SARS-CoV-2, UniProt P0DTC2 14-1273).
In the case of B3, the “median fluorescence intensity, fold over isotype control” value (“median fluorescence intensity, fold” below) is reported as 8.03 fold over isotype.
In the case of B4, the “median fluorescence intensity, fold” value is reported as 6.88 fold over isotype.

These binders were tested against SARS-CoV-2 full length spike protein, V483A mutant, expressed on CHO cells (SARS-CoV-2, UniProt P0DTC2 14-1273).
For B5, the “median fluorescence intensity, fold” value was 7.71 fold over isotype.
B6 was tested, and the “median fluorescence intensity, fold” value was 20.2 fold over isotype.
In the case of B7, the “median fluorescence intensity, fold” value is reported as 11.4 fold over isotype.
With B8 the “median fluorescence intensity, fold” value was 10.7 fold over isotype.
With B9 the “median fluorescence intensity, fold” value was 1.06 fold over isotype.
With B10 the “median fluorescence intensity, fold” value was 23.9 fold over isotype.
B11 was tested, and the “median fluorescence intensity, fold” value was 12.6 fold over isotype.
In the case of B12, the “median fluorescence intensity, fold” value is reported as 14.1 fold over isotype.
With B13 the “median fluorescence intensity, fold” value was 22.2 fold over isotype.
In the case of B14, the “median fluorescence intensity, fold” value is reported as 2.47 fold over isotype.
For B15, the “median fluorescence intensity, fold” value was 1.05 fold over isotype.

The binders below were run against SARS-CoV-2 full length spike protein, D614G mutant, expressed on CHO cells (SARS-CoV-2, UniProt P0DTC2 14-1273).
With B1 the “median fluorescence fold” value was 9.47 fold over isotype.
For B2, the “median fluorescence fold” value was 64.3 fold over isotype.
